Laboratory results: US7452690

Tested on: PL-FXa-b2AR fusion protein (ED-FXa cleavage site-beta2-adrenergic receptor) expressed on transiently transfected HEK293 cells

## Factor Xa
  EFC activity as relative luminescent units (RLU): a difference in about 30000 RLUs was observed over a range in concentration of FXa of about 10^-3 to 10^1 µg/mL
  readings (chemiluminescence, β-galactosidase enzyme fragment complementation after cleavage): the transiently infected cells showed an increase in the readings from 0.01 ng/well to 1000 ng/well of Factor Xa
